Test results from patent publication US10131920B2, “Nucleic acid molecules” (MEDIMMUNE LIMITED, priority 2013, dated 2018).
Numbering of substitutions follows the chain as printed. Numbers in names are those of the source.

Key:
[1] = tested on: GFPY40 reporter (GFP containing an amber codon) in HEK293 cells stably expressing pylRS; assay: Amber suppression-dependent GFP expression (GFPY40 reporter), transient transfection, flow cytometry; type: cell-based; settings: for capacity to support amber suppression relative to H1 WT tRNA (FIG. 4): all tRNA variants under control of the H1 promoter, 1 ug construct + 1 ug GFPY40, lys azide 2 mM, 18 hours; for GFP MFI, FIG. 8: 1 ug PCR product of each construct, lys azide nnAA
Description: (§1) To assess the function of the tRNA variants, an in vitro assay was established where cells are transiently transfected with a tRNA construct and a reporter construct encoding GFP containing an amber codon interrupting its reading frame (GFPY40). HEK293 cells stably expressing pylRS were transiently transfected with various tRNA constructs (1 ug) and the GFPY40 reporter (1 ug). In the absence of elements that support amber suppression, a truncated GFP protein is generated and the cell is not fluorescent. However, the introduction of a functional tRNA and the presence of a nnAA that supports amber suppression allows for the production of full length GFP resulting in fluorescent cells. The level of GFP expression reflects the efficiency of amber suppression and is quantified by flow cytometry. tRNA genes encoding wild type tRNApyl (WT tRNA), or containing mutations in the B-box (B tRNA—SEQ ID No 9), in both the A and B box (A2B tRNA—SEQ ID No 10), or in the A box (A1 tRNA-SEQ ID No 7; or A2 tRNA SEQ ID No 11), all under control of the H1 promoter were generated by site directed mutagenesis and assayed. The H1 promoter ensured that the variants were expressed and allowed us to examine the functional effects of the mutations introduced into the tRNA genes. In addition a sample transfected with GFPY40 alone was generated to establish background GFP levels. The transfected cells were grown in presence of the aminoacid analogue lys azide (2 mM) and incubated for 18 hours. GFP fluorescence was then assayed by flow cytometry and mean fluorescence intensity determined for each sample. Data were analysed with FCS Express and the mean fluorescence intensity of each sample determined using markers that constrain the data set to cells showing fluorescence above negative controls.
To begin to assess whether the tRNA mutations can support expression of the tRNA we assayed tRNA constructs encoding the wild type tRNA in the absence of the H1 promoter. Constructs encoding wild type tRNApyl (WT tRNA) or containing mutations in the B-box (B tRNA—SEQ ID No 9) or in both the A and B box (A2B; A2B tRNA—SEQ ID No 10) were assayed using our in vitro amber suppression assay described above. WT tRNA under control of the H1 promoter (H1-tRNA) was used as a positive control, and in addition one sample was transfected only with the GFPY40 reporter to illustrate background amber suppression in the absence of tRNA. The transfected cells were exposed to 2 mM lys-azide nnAA and cells incubated for three days. GFP expression was examined by flow cytometry and mean fluorescence intensity determined.
Two copies of the WT, B, or A2B tRNA were cloned in tandem to generate a single vector containing two copies of WT, B, or A2B tRNA. To assess the effect of increased gene doses by these constructs, cells expressing WTpylRS were transiently transfected with the tRNA constructs and the GFPY40 reporter construct and GFP expression assayed after two days.
The activity of each construct was assessed by transient transfection into cells stably expressing WT pylRS with the GFPY40 reporter as described above. For this experiment, 1 ug of a PCR product encoding each of the indicated constructs was used. In each case, cells were exposed to the lys azide nnAA for three days and GFP levels assayed by flow cytometry. Mean fluorescence intensities were determined for each sample and plotted (FIG. 8).

[2] = tested on: GFPY40 reporter in 3H7 cells; assay: Amber suppression-dependent GFP expression (GFPY40 reporter), transient transfection of 3H7 cells, flow cytometry; type: cell-based; settings: three days
Description: as §1, with “controls. […] The constructs thus are functional and may contain the necessary genetic sequence to enable the expression of the tRNA also in the absence of an upstream promoter element such as the H1 promoter.” for “controls.”
Having established that the B mutation introduced into the pyltRNA sequence enabled expression of the tRNA that supported amber suppression we then asked whether this mutation affected the orthogonality of the tRNA and led to the incorporation of natural amino acids. To do this 3H7 cells were transiently transfected with expression constructs encoding WT-tRNA, B-tRNA, H1-tRNA and H1-B tRNA along with the GFPY40 reporter. Transfected cells were grown in the presence of 2 mM lys azide or absence of nnAA as indicated (FIG. 6), and GFP expression assessed by flow cytometry after three days. In addition, a sample transfected only with GFPY40 was examined to determine background amber suppression levels in the absence of tRNA. […] A comparison of GFP expression between the WT tRNA (MFI 33,781) and tRNA B (232,505) lacking extragenic promoter elements confirms that the B mutation generates a functional intragenic promoter. Indeed, the B tRNA construct enabled a seven-fold increase in the level of amber suppression dependent expression of GFP over WT tRNA.
We also tested the utility of a bicistronic tRNA expression construct for its ability to express tRNApyl. Here, the murine tRNA Glu and tRNA Asp were utilized. In each case, multiple repeats of the constructs were generated to increase activity (3×Glu-pyl and 2×Asp-pyl). Here, 3H7 cells were transiently transfected with 1 ug of the reporter construct GFPY40 and 1 ug of the indicated tRNA expression vectors (FIG. 11) and incubated with lys-azide for three days. Data were collected by flow cytometry and mean fluorescence intensities for each sample were plotted. […] The construct consisting of the 7SL WT tRNA (MFI=312) was included as a metric for low efficiency. In addition cell lines containing only the GFPY40 reporter were used as negative controls (MFI=0).

[3] = 2 mM lys-azide nnAA, three days

B1: A2B tRNA: tRNApyl Methanosarcina mazei with A10G, T14A, A52C mutations (nucleic acid)
DNA: GGAAACCTGGTCAAGTAGATCGAATGGACTCTAAATCCGTTCAGCCGGGTTCGATTCCCGGGGTTTCCG
modifications: expressed or natural sequence
notes: tRNApyl Methanosarcina mazei with A10G, T14A, A52C mutations
B1 was tested, and the “GFP mean fluorescence intensity (MFI), FIG. 5” value [1, 3] was 242,747.9, the “fold higher expression of GFP than the wt tRNA construct (FIG. 5)” value [1, 3] was 2.5 fold and the “capacity to support amber suppression relative to H1 WT tRNA (FIG. 4)” value [1] was “support amber suppression, albeit at a lower level than the WT tRNA”. The “GFP MFI, single copy tRNA, FIG. 7” value ([1]; cells expressing WTpylRS, after two days, single copy) was 61,950 and the “GFP MFI, tandem copies of tRNA, FIG. 7” value ([1]; cells expressing WTpylRS, after two days, single vector containing two copies in tandem) was 96,158.

B2: 7SL tRNA A1: tRNA-A1 downstream of the 7SL promoter 5′ region (nucleic acid)
DNA: CCCAGTTGATGACGTCACCATACCACAGCTTCTAGTGCTATTCTGCGCCGGTATCCGACCACCAGGAAACCTGGTCATGTAGATCGAATGGACTCTAAATCCGTTCAGCCGGGTTAGATTCCCGGGGTTTCCGGACAAGTGCGGTTTTT
modifications: Synthetic sequence 7SL tRNA-A1 construct
notes: tRNA-A1 downstream of the 7SL promoter 5′ region
For B2, the “GFP MFI, FIG. 8” value ([1]; three days) was 114,393.

B3: 7SL A2B: tRNA-A2B downstream of the 7SL promoter 5′ region (nucleic acid)
DNA: B2 DNA with T78A, A116C
modifications: Synthetic sequence 7SL tRNA-A2B construct
notes: tRNA-A2B downstream of the 7SL promoter 5′ region
B3 was tested, and the “GFP MFI, FIG. 8” value ([1]; three days) was 245,120.

B4: 7SL AB: tRNA-AB downstream of the 7SL promoter 5′ region (nucleic acid)
DNA: B2 DNA with A116C
modifications: Synthetic sequence 7SL tRNA-AB construct
notes: tRNA-AB downstream of the 7SL promoter 5′ region
For B4, the “GFP MFI, FIG. 8” value ([1]; three days) was 210,380.

B5: Vault WT tRNA: WT tRNApyl downstream of the Vault promoter 5′ region (nucleic acid)
DNA: TGGTCGCTGAGTCATGCTGAAGCACTCTCTTTTTGACTCACTCTTTGTGACGTAGGTCTTTCTCACCAGTCAATAAAATATAATCCGAAAGCAACCTCCCACCAGGAAACCTGATCATGTAGATCGAATGGACTCTAAATCCGTTCAGCCGGGTTAGATTCCCGGGGTTTCCGGACAAGTGCGGTTTTT
modifications: Synthetic sequence Vault tRNA-WT construct
notes: WT tRNApyl downstream of the Vault promoter 5′ region
With B5 the “GFP MFI, FIG. 8” value ([1]; three days) was 102,415.

B6: Vault A2B tRNA: tRNA-A2B downstream of the Vault promoter 5′ region (nucleic acid)
DNA: B5 DNA with A114G, T118A, A156C
modifications: Synthetic sequence Vault tRNA-A2B construct
notes: tRNA-A2B downstream of the Vault promoter 5′ region
For B6, the “GFP MFI, FIG. 8” value ([1]; three days) was 154,445.

B7: Vault B tRNA: tRNA-B downstream of the Vault promoter 5′ region (nucleic acid)
DNA: B5 DNA with A156C
modifications: Synthetic sequence Vault tRNA-B construct
notes: tRNA-B downstream of the Vault promoter 5′ region
With B7 the “GFP MFI, FIG. 9” value ([1]; 1 ug GFPY40 reporter and 1 ug tRNA expression plasmid) was 168,298 and the “GFP MFI, FIG. 8” value ([1]; three days) was 170,838.

B8: H1-A1 tRNA: tRNA-A1 (A10G) under control of the H1 promoter (nucleic acid)
DNA: AATATTTGCATGTCGCTATGTGTTCTGGGAAATCACCATAAACGTGAAATCCCTATCAGTGATAGAGACTTATAAGTTCCCTATCAGTGATAGAGACACCAGGAAACCTGGTCATGTAGATCGAATGGACTCTAAATCCGTTCAGCCGGGTTAGATTCCCGGGGTTTCCGGACAAGTGCGGTTTTTTT
modifications: Synthetic sequence H1 tRNA-A1 construct
notes: tRNA-A1 (A10G) under control of the H1 promoter
B8 was tested, and the “capacity to support amber suppression relative to H1 WT tRNA (FIG. 4)” value [1] was “does not affect the activity of the tRNA”.

B9: H1 A2 tRNA: tRNA-A2 (A10G, T14A) under control of the H1 promoter (nucleic acid)
DNA: B8 DNA with T115A
modifications: Synthetic sequence H1 tRNA-A2 construct
notes: tRNA-A2 (A10G, T14A) under control of the H1 promoter
For B9, the “capacity to support amber suppression relative to H1 WT tRNA (FIG. 4)” value [1] was “does not affect the activity of the tRNA”.

B10: H1-B tRNA: tRNA-B (A52C) under control of the H1 promoter (nucleic acid)
DNA: B8 DNA with G111A, T152C
modifications: Synthetic sequence H1 tRNA-B construct
notes: tRNA-B (A52C) under control of the H1 promoter
In the case of B10, the “GFP MFI in the presence of lys-azide, FIG. 6” value ([2]; 2 mM lys azide) is reported as 313,386 and the “GFP MFI in the absence of nnAA, FIG. 6” value ([2]; no nnAA) is reported as 36,217.
